# Experimental data published in patent US20040143095A1.
# Where no end group is shown, it is not given here.
# How the values were obtained:
# [1] = target: endogenous CRF-R2β of A7r5 rat aortic smooth muscle cells (rat), P47866; assay: cell-based or functional assay
# [2] = target: mouse CRF receptor type 2β (mouse) (UniProt Q60748); assay: radioligand displacement ([125I-Tyr0,Glu1,Nle17]-sauvagine), CHO membranes
# [3] = target: rat CRF receptor type 2α (rat) (UniProt P47866); assay: as above
# rat CRF receptor type 2α (rat), sequence (P47866 20-411): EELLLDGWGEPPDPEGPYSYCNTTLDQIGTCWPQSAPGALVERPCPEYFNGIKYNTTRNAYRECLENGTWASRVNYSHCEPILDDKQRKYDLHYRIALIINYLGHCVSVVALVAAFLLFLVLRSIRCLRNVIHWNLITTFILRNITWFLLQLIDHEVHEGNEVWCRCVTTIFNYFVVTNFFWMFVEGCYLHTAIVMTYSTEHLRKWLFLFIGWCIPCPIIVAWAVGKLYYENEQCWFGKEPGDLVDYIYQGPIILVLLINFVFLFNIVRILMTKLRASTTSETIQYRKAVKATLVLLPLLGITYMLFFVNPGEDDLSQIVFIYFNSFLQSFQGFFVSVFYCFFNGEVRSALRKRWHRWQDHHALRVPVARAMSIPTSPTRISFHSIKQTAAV
# endogenous CRF-R2β of A7r5 rat aortic smooth muscle cells (rat), P47866, sequence (P47866 20-411): as above
Binder,"cAMP accumulation in A7r5 rat aortic smooth muscle cells, EC50 [1] [nM]",Ki [2] [nM],Ki [3] [nM]
FTLSLDVPTNIMNLLFNIAKAKNLRAQAAANAHLMAQI-NH2 [Urocortin III (human)],80.9,13.5,21.7
"IVLSLDVPIGLLQILLEQARARAAREQATTNARILARV (peptide, UniProt Q96RP3 72-109, looked up) [Urocortin II (human)]",,0.5,1.7
FTLSLDVPTNIMNILFNIDKAKNLRAKAAANAQLMAQI-NH2 [Urocortin III (mouse)],3.7,1.8,5
"VILSLDVPIGLLRILLEQARYKAARNQAATNAQILAHV (peptide, UniProt Q99ML8 73-110, looked up) [Urocortin II (mouse), Q99ML8 73-110]",0.18,,
"VILSLDVPIGLLRILLEQARYKAARNQAATNAQILAHV (peptide, UniProt Q99ML8 73-110, looked up) [Urocortin II (mouse)]",,0.66,2.1
